Biological target: T1, RAD51 WT protein phosphorylated in vitro by c-MET kinase (human)
T1 chain: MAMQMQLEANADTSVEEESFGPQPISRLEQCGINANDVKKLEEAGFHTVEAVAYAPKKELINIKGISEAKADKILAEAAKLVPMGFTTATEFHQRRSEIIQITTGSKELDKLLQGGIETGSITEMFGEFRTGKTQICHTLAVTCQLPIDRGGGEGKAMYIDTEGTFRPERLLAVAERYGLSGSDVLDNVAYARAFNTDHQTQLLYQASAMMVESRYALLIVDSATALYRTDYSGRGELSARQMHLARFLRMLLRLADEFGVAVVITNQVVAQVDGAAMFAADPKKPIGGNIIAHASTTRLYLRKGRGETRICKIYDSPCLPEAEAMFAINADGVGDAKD
Assay: cross-linking; RAD51 10 uM with ATP 2 mM, with or without kinase-active c-MET (0.1 uM) and PHA665752 (1 uM); 20 mM BS3, room temperature, 30 min, stopped with Tris 1 M pH 8.0; SDS-PAGE 10% and western blot with anti-RAD51
Details: remark: other sources report otherwise

fold of multimer forms against non-phosphorylated RAD51: 1.6 fold
B1: RAD51 WT protein phosphorylated in vitro by c-MET kinase (natural protein)
chain: MAMQMQLEANADTSVEEESFGPQPISRLEQCGINANDVKKLEEAGFHTVEAVAYAPKKELINIKGISEAKADKILAEAAKLVPMGFTTATEFHQRRSEIIQITTGSKELDKLLQGGIETGSITEMFGEFRTGKTQICHTLAVTCQLPIDRGGGEGKAMYIDTEGTFRPERLLAVAERYGLSGSDVLDNVAYARAFNTDHQTQLLYQASAMMVESRYALLIVDSATALYRTDYSGRGELSARQMHLARFLRMLLRLADEFGVAVVITNQVVAQVDGAAMFAADPKKPIGGNIIAHASTTRLYLRKGRGETRICKIYDSPCLPEAEAMFAINADGVGDAKD
modifications: here or on the partner: phosphotyrosine at Y159, Y191, Y205 and Y315 (sites the paper concludes for c-MET; extent at each site not stated); phosphotyrosine at Y159, Y191, Y205 and Y315 (sites the paper concludes for c-MET; extent at each site not stated)
